B1: human Hsp90β (natural protein)
chain: not shown
B2: acrylodan-labeled C-terminal domain of Aha1 (164-338) (domain or fragment)
chain: ILPTMNGESVDPVGQPALKTEERKAKPAPSKTQARPVGVKIPTCKITLKETFLTSPEELYRVFTTQELVQAFTHAPATLEADRGGKFHMVDGNVSGEFTDLVPEKHIVMKWRFKSWPEGHFATITLTFIDKNGETELCMEGRGIPAPEEERTRQGWQRYYFEGIKQTFGYGARLF
modifications: acrylodan (thiol-reactive probe on cysteine residues)

In experiment [1] the target is B2. Description: other fluorescence titration.
The experiment “human Hsp90β” has as its target B1. Description: other fluorescence titration.

human Hsp90β, sequence (P08238 whole entry): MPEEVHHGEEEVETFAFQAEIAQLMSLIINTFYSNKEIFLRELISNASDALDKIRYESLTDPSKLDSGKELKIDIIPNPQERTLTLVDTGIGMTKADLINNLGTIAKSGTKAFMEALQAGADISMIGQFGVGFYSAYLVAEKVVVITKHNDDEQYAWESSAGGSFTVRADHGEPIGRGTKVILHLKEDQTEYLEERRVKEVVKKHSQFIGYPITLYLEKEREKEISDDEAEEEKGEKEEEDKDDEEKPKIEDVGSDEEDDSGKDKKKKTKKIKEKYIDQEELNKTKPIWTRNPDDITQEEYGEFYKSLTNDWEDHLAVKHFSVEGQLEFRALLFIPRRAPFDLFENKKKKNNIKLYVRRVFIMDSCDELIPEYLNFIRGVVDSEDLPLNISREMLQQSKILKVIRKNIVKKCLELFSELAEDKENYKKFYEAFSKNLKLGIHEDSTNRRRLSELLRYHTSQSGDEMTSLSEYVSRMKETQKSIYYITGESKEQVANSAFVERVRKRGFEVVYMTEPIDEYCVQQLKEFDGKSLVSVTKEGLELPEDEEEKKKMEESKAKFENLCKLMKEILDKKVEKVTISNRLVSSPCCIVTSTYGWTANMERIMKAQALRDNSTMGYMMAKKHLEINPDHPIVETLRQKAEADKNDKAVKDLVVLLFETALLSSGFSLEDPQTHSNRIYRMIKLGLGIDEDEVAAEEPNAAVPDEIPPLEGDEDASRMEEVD

On to B1, for which the “fold increase in Kd with SEW04784 against without” value in experiment [1] is 2.5 fold. B2: the binding result with human Hsp90β was “binds”.

The record behind these values is doi:10.1101/412908 (bioRxiv, 2018).
